This data set can be described thus: yeast display, Sf9 membrane polyspecificity reagent, FACS + sequencing; frameworks hold sequencing errors. In short, it runs like this: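 Nanobodies came from a synthetic yeast display library in Saccharomyces cerevisiae BJ5465, induced with galactose for 36–48 hours and stained for 1 hour at 4 °C with 10% biotinylated, detergent-solubilized Sf9 membrane reagent. Cells were enriched on streptavidin microbeads and then FACS-sorted, with low and high (top ~1%) gates set on anti-HA fluorescence for expression and streptavidin fluorescence for reagent binding. Each polyreactivity label reflects the gate a clone came from. Genes were amplified by colony PCR, sequenced by MiSeq 2 × 250 and filtered by CDR length.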
For “QVQLVESGGGLVQAGGSLRLSCAASGSTLHLYAMGWYRQAPGKERELVADITSGGDTYYADSVKGRFTISRDNAKNTVYLQMNSLKPEDTAVYYCNAVYEGRYEYAYYYRYDYWGQGTQVTLSS”, the “polyreactivity (PSR sort gate)” value is reported as “high polyreactivity”.
Consider “QVQLVESGGGLVQAGGSLRLSCAASGSTLLANAMGWYRQAPGKERELVAASTYYADSVKGRFTISRDNAKNTVYLQMNSLKPEDTAVYYCAADTVRGGPDGIEYNYWGQGTQVTVSS”, for which the “polyreactivity (PSR sort gate)” value is recorded as “low polyreactivity”.
To “QVQLVESGGGLVQAGGSLRLSCAASGSTLLYYAKGWYRQAPGKERELVAAISWRGGSTYYADSVKGRFTISRDNAKYTVYLQMNSLKPEDTAVYYCAARSLRLVGPYYYWGQGTQVTVSS” belongs “high polyreactivity”.
To “QVQLVESGGGLVQAGGSLRLSCAASGSTLNRNAMGWYRQAPGKERDLVAAIRVSGGSTYYADSVKGRFTISRDNAKNTVYLQMNSLKPEDTAVYYCATRYVRARWYGYWGQGTQVTVSS” belongs “high polyreactivity”; to “QVQLVESGGGLVQAGGSLRLSCAASGSTLNSYVMGWYRQAPGKERELVATIRSGSSTNYADSVKGRFTISRDNAKNTVYLQMNSLKPEDTAVYYCAGDAYSLCYDSWGQGTQVTVSS”, “low polyreactivity”; to “QVQLVESGGGLVQAGGSLRLSCAASGSTLNVNAMGWYRQAPGKERELVAAITSGGSTYYADSVKGRFTISRDNEKNTVYLQIHSLKPEDTAVYYCNKRRSWRPTYPIGGSGFYYWGQGTQVTVSS”, “low polyreactivity”.
To “QVQLVESGGGLVQAGGSLRLSCAASGSTLPGNVMAWYRQAPGKERELVAAISKRGASTYYADSVKGRFTISRDNAKNTVYLQMNSLKPEDTAVYYCATRTRGSVFRFDYWGQGTQVTVSS” belongs “high polyreactivity”; to “QVQLVESGGGLVQAGGSLRLSCAASGSTLPNNAMGWYRQAPGKERELVAAISWRGTRTYYADSVKGRFTISRDNAKNTVYLQMNSLKPEDTAVYYCAAGGVGAYDYWGQGTEVTVSS”, “high polyreactivity”; to “QVQLVESGGGLVQAGGSLRLSCAASGSTLPRYAMGWYRQAPGKEREFVAAMTWRGGSTYYADSVKGRFTISRDNAKNTVYLQMNSLKPEDTAVYYCNTHRNGGSHRRYNYWGQGTQVTVSS”, “high polyreactivity”.
As to “QVQLVESGGGLVQAGGSLRLSCAASGSTLPVNAMGWYRQAPGKERELVAAINRDGSTNYADSVKRPFTISRDNAKNNVYLQMNCLKPDDTAVYYCGADGFGYPGKRYDYWGHGTQVTVSS”, the “polyreactivity (PSR sort gate)” value is listed as “low polyreactivity”.
To “QVQLVESGGGLVQAGGSLRLSCAASGSTLQINGMGGYRQAPGKERELVAAISIGGDTNYADSVKGRFTISRDNAKNTEMNSLKTEDTAVYYCNTDYFGSLVVVIFDYWGQGTQVTVSS” belongs “low polyreactivity”.
To “QVQLVESGGGLVQAGGSLRLSCAASGSTLQINGMGWYRQAPGKERELVAAISIGSDTNYADSVKGRFTISRDNAKNTEMNSLKPEDTAVYYCAAQRRYHQDTTIGPGNYYYWGQGTQVTVSS” belongs “low polyreactivity”; to “QVQLVESGGGLVQAGGSLRLSCAASGSTLQVNAMGWYRQAPGNERELVATISFSGGSTYYADSVKGRFTISRDNAKYTVYLQMNSLKPEDTAVYYCNADSFVSWYNQFWYQATYDYWGQGTEVTVSS”, “low polyreactivity”.
To “QVQLVESGGGLVQAGGSLRLSCAASGSTLQVYAMGWYREAPGKERELVAAISKSGGRTYYADSVKGRFSISRDNAKNTFYLQMNSLKPEDTAVYYCAADVGTAQSTYGYWGQGTQVTVSS” belongs “high polyreactivity”; to “QVQLVESGGGLVQAGGSLRLSCAASGSTLRRYAMGWYRQAPGKERELVAAISGTGSRTYYADSVKGRFTISRDNAKNTVYLQMNSLKPEDTAVYYCNASPYRLTENDYWGQGTQVTVSS”, “high polyreactivity”; to “QVQLVESGGGLVQAGGSLRLSCAASGSTLRRYAMGWYRQAPGKERELVAINSSGGITYYADSVKGRVTISRDNAKNTVYLQMNSLKPEDTAVYYCNARRPAPGYGYDYWGQGTQVTVSS”, “low polyreactivity”.
Take “QVQLVESGGGLVQAGGSLRLSCAASGSTLRRYAMGWYRQAPGTERELVASNSRGGTSTYYADSVKGRFTISRDNAKNTVYLQMKSLKPEDTAVYYCAAATPYRYNYWGQGTQVTVSS”: the “polyreactivity (PSR sort gate)” value was “high polyreactivity”.
To “QVQLVESGGGLVQAGGSLRLSCAASGSTLSDYVMGWYRQAPGKERELVAAITSGGSTSYADSVKGRFTISRDNAKNTVYLQMNSLKPEDTAVYYCNATLLFPLLYGPESGEFDYWGQGTQVTVSS” belongs “low polyreactivity”; to “QVQLVESGGGLVQAGGSLRLSCAASGSTLSGNAMGWYRQAPGKERELVAAIRWSGDITYYADSVKGRFTISRDNAKNTVYLQMNSLKPEDTAVYYCAATLGNRWFHYNYWGQGTQVTVSS”, “low polyreactivity”; to “QVQLVESGGGLVQAGGSLRLSCAASGSTLSKYAMGWYRQAPGKERELVAAISQRGGSTYYADSVKGRFTISRDNAKNTVYLQMNSLKPEDTAVYYCNALQRRYGYWGQGTQVTVSS”, “high polyreactivity”.
In the case of “QVQLVESGGGLVQAGGSLRLSCAASGSTLSKYGMGWYRQAPGKERDLVAAISYSSGSTYYADSVKGRFTISRDNAKNTVYLEMNSLKPEDTAVDYCAADRFRSLHYWTYDYWGQGTQVTVSS”, the “polyreactivity (PSR sort gate)” value is reported as “high polyreactivity”.
To “QVQLVESGGGLVQAGGSLRLSCAASGSTLSVNAMGWYRQAPGKERELVAAIDFDGGDTYYADSVKGRFTISRDNAKNTVYLQMKSLKPEDTAVYFCAADIGGQYDYLADDYWGQGNQVTVSS” belongs “low polyreactivity”; to “QVQLVESGGGLVQAGGSLRLSCAASGSTLSVNAMGWYRQAPGKERELVAAIDFDGGDTYYADSVKGRFTISRDNAKNTVYLQMNSLKPEDTAVYYCAADIGGQYDYLADDYWGQGTQVTVSS”, “low polyreactivity”; to “QVQLVESGGGLVQAGGSLRLSCAASGSTLTRNAMGWYRQAPGKERELVAAITTSGGRTYYADSVKGRFTISRDNAKNTVYLQMNSLKPEDTAVYYCAARQRSEYVSGSLFYYWGQGTQVTVSS”, “high polyreactivity”.
For the sequence “QVQLVESGGGLVQAGGSLRLSCAASGSTLVFYAMGWYRQAPGKERELVAAIDSDGGTYYADSVKGRFTISRDNAKNTVYLQMNSLKPEDTAVYYCNAAGALIFGEGYYVEYDYDYWGQGTQVTVSS”, the “polyreactivity (PSR sort gate)” value was “low polyreactivity”.
To “QVQLVESGGGLVQAGGSLRLSCAASGSTLVTNPMGWYRQAPGKERELVAAITFSGGTTYYADSVKGRFTISRDTAKNTVYLHMNSLKPEDTAVYYCAAEIWLEYVGYDYWGQGTQVTVSS” belongs “high polyreactivity”; to “QVQLVESGGGLVQAGGSLRLSCAASGSTLVYNGMVWYRQAPGKEREFVAAIRSNDGSTYYADSVKGRFTISRDNAKNTVYLQMNSLKPEDTAVYYCNNDVWDGYDWPEFDYWGQGTQVTVSS”, “low polyreactivity”.
As to “QVQLVESGGGLVQAGGSLRLSCAASGSTLWFNAMGLYRPAPGKERELVAAINWSGGSTYYADSVKGRFTISRDNAKNTVYLQMNSLKPEDTAVYYCAAVYQYVHYVWYDYWGQGTQVTVSS”, the “polyreactivity (PSR sort gate)” value is on record as “low polyreactivity”.
To “QVQLVESGGGLVQAGGSLRLSCAASGSTLWRYAMGWYRQAPGKEREFVAAISGSGGSTYYADSVKGRFTISRDNAKNTVYLLMNSLKPEDTAVYYCAASRKYRNPDRSMYYWGQGTQVTVSS” belongs “high polyreactivity”; to “QVQLVESGGGLVQAGGSLRLSCAASGSTLWRYTMGWYRQAPGKVREFVADINRGSSTNYADSVKGRFTISRDNAKNSVYLQINSLKPEDTAVYYCAAAKVHYGYNSWYYYWRQGTQVTVSS”, “low polyreactivity”.
To “QVQLVESGGGLVQAGGSLRLSCAASGSTLWYYAMGWYRQAPGKERELVADITSSGNTNYADSVKGRFTISRDNAKNTVYLQMISLKPEDTAVYYCAADVTKYHDGHEYDYWGQGTQVTVSS” belongs “low polyreactivity”; to “QVQLVESGGGLVQAGGSLRLSCAASGSTLYAYAMGWYRQAPGKERELVAAIRTGGSTYYADSVKGRFTISRDNAKNTVYLQMNSLKPEDTAVYYCAADHGYQYGYWGQGTQVTVSS”, “low polyreactivity”; to “QVQLVESGGGLVQAGGSLRLSCAASGSTLYKYAMGWYRQAPGKERELVAAISWSGSSTYYADSVKGRFTISRDNAKNTVYLQMNSLKPEDTAVYYCAAYPRPYIGYTDGYVWYEFDYWGQGTQVTVSS”, “low polyreactivity”.
On to “QVQLVESGGGLVQAGGSLRLSCAASGSTLYPYAMGWYRQAPGKERELVAVITLRGGSTYYADSVKGRFTISRDNAKNTVYLQMNSLKPEDTAVYYCATGNSKGRRTVRYGYWGQGTQVTVSS”, for which the “polyreactivity (PSR sort gate)” value is “high polyreactivity”.
For “QVQLVESGGGLVQAGGSLRLSCAASGSTLYPYDMGWYRQAPGTERELVAAIDSGGSTNYADSVKGRFTISRDNAKNTVYLQMNSLKPEDTAVYFFAADASGENDYWGQGTQVTVSS”, the “polyreactivity (PSR sort gate)” value is “low polyreactivity”.
To “QVQLVESGGGLVQAGGSLRLSCAASGSTLYRNAMGWYRQQPGKERELVAGITSSGTTTYYADSVKGRFTISRDNAKNTVYLQMNSLKPEDTAVYYCAARSLGFYYYDMDYWGQGTQVTVSS” belongs “low polyreactivity”.
To “QVQLVESGGGLVQAGGSLRLSCAASGSTLYRYAMGWYRQAPGKEREFVAAISVSGARTYYADSVKGRFTISRDNAKNTVYLQMNSLKPEDTAVYYCAARGGYQYDYWGQGTQVTVSS” belongs “high polyreactivity”.
As for “QVQLVESGGGLVQAGGSLRLSCAASGSTLYRYAMGWYRQAPGKERELVAAISSAGSTHYADSVKGRFTISRDNAKNTVYLQMNSLKPEDTAVYYCAAKRYLKYGYWGQGTQVTVSS”, the “polyreactivity (PSR sort gate)” value is on record as “high polyreactivity”.
To “QVQLVESGGGLVQAGGSLRLSCAASGSTLYRYTMGWYRQAPGKERELVAAISSGGNTYYADSVKGRFTISRDNAKNTVYLQMNSLKPEDTAVYYCAAEDSVYIPYYDAYDYWGQGTQVTVSS” belongs “low polyreactivity”.
To “QVQLVESGGGLVQAGGSLRLSCAASGSTLYSNAMGWYRQAPGKERELVATIDWSGGRTYYADSVKGRFTISRDNAKNTVYLQMNSLKPEDTAVYYCAARQSRDFRYRGFYYWGQGTQVTVSS” belongs “high polyreactivity”; to “QVQLVESGGGLVQAGGSLRLSCAASGSTLYTYAMGWYRQAPGKERELVATISWSGSSTYYADSVKGRFTISRDNAKNTVYLQMNSLKPEDTAVYDCAAPYHYWYRLDYWGQGTQVTVSA”, “high polyreactivity”.

For the origin of these results see the nanobody polyreactivity screen of Harvey et al. (2022).
